{"source": "patent US8841270B2", "about": "“Use of inhibitors of Zdhhc2 activity for modulation of adipogenesis” (Sanofi, priority 2009, dated 2014)", "molecules": {"B1": {"name": "shLuc: negative control shRNA directed against luciferase, SEQ ID NO. 7 (nucleic acid)", "chain": "GATCCGTGCGTTGCTAGTACCAATTCAAGAGATTGGTACTAGCAACGCACTTTTTTACGCGTG"}, "B2": {"name": "shZdhhc2-2: shRNA specific for Zdhhc2 in pSIREN retroviral vector; target sequence probably SEQ ID NO. 6 (nucleic acid)", "DNA": "GATCCGTATGAGCAACCCTGCATTTCAAGAGAATGCAGGGTTGCTCATACTTTTTTACGCGTG"}}, "key": {"C57BL/6J mice": {"tested_on": "C57BL/6J mice", "assay": "Rimonabant treatment of high fat diet fed mice, glucose tolerance", "assay_type": "in vivo, mouse", "conditions": "HFD C57BL/6J mice, rimonabant 10 mg·kg−1·day−1 for one month", "description": "C57BL/6J mice, which are obesity-prone (5), were fed for 6 months with a high fat diet (HFD)."}, "3T3-L1 cells": {"tested_on": "3T3-L1 cells", "assay": "Adipogenesis of retrovirally transduced 3T3-L1 cells (oil-red-O staining, aP2 mRNA by RT-PCR)", "assay_type": "cell-based, mouse", "procedure": "3T3-L1 cells were cultured in DMEM (Gibco) with 10% FBS (Gibco) at 5% CO2. After retroviral infection (see below), cells were allow to grow to confluence in either 100-mm or 60-mm dishes in DMEM with 10% FBS. Once confluence was reached, cells were exposed to differentiation medium containing dexamethasone (1 μM), insulin (5 μg/ml), and isobutylmethylxanthine ([…]) (DMI). After 2 days cells were maintained in medium containing insulin ([…]) until ready for harvest at 7 days.\nAfter 7 to 10 days of differentiation, cells were washed once in PBS and fixed with formaldehyde (Formalde-fresh; Fisher) for 15 minutes. The staining solution was prepared by dissolving 0.5 g oil-red-0 in 100 ml of isopropanol; 60 ml of this solution was mixed with 40 ml of distilled water. After 1 hour at room temperature the staining solution was filtered and added to dishes for 4 hours. The staining solution was then removed and cells were washed twice with distilled water.\nRetroviruses were constructed in the RNAi-Ready pSIREN-RetroQ ZsGreen (pSIREN Clontech). Viral constructs were transfected using calcium-phosphate method described in Jordan, M. et al. (2004) into 293 HEK packaging cells along with constructs encoding gag-pol and the VSV-G protein. […]"}, "Zdhhc2": {"tested_on": "Zdhhc2", "assay": "shRNA knockdown of Zdhhc2 expression, mRNA by RT-PCR", "assay_type": "cell-based, mouse", "conditions": "shRNA in pSIREN plasmid, tested in 293T HEK cells; mRNA by RT-PCR (FIG. 3A)", "description": "shRNAs were constructed using the RNAi-Ready pSIREN-RetroQ ZsGreen (Clontech). Target sequences for Zdhhc2 were designed by querying the Whitehead siRNA algorithm (http://jura.wi.mit.edu/bioc/siRNAext/) as well as the siRNA designer software from Clontech (http://bioinfo.clontech.com/rnaidesigner/); at least two sequences represented by both algorithms were subcloned into the pSIREN vectors (Clontech) using the EcoRI and BamH1 restriction sites. The following target sequences for Zdhhc2 were chosen SEQ ID NO. 5 and 6 as a negative control, we used the following siRNA sequence against luciferase: SEQ ID NO. 7.\nThe specificity of shRNAs was tested in 293T HEK cells co-transfected using calcium-Phosphate methods described in (14) with expression vectors containing Zdhhc2 cDNA and the RNAi-Ready pSIREN-RetroQ ZsGreen vector expressing either the shRNA against lucifeare (control shLUC) or Zdhhc2 (shZdhhc2). RT-PCR analysis was performed on cell RNA-extraction 24 h after transfection.\nTotal RNA was isolated from cultured cells using peqGOLD TriFast reagent according to the manufacturer's instructions (Axonlab). First strand cDNA was synthesized from 0.5 μg of total RNA using random primers and Superscript II (Invitrogen). […]\nFor the loss-of-function studies, shRNA specific for Zdhhc2 subcloned into a retroviral vector from Clontech were used (RNAi-Ready pSIREN-RetroQ ZsGreen or pSIREN). […]"}}}
{"molecule": "Cc1c(C(=O)NN2CCCCC2)nn(-c2ccc(Cl)cc2Cl)c1-c1ccc(Cl)cc1", "note": "[rimonabant]", "values": [{"measurement": "glucose tolerance", "setting": "C57BL/6J mice", "result": "normalized glucose tolerance"}]}
{"molecule": "B1", "values": [{"measurement": "inhibition of adipogenesis in vitro", "setting": "3T3-L1 cells; 3T3-L1 cells, oil-red-O staining and aP2 expression at day 9", "result": "no inhibition"}]}
{"molecule": "B2", "values": [{"measurement": "knockdown of Zdhhc2 expression", "setting": "Zdhhc2", "result": 50, "unit": "%"}, {"measurement": "aP2 expression decreased", "setting": "3T3-L1 cells; infected 3T3-L1 cells, day 9 of differentiation with DMI, RT-PCR", "result": 60, "unit": "%"}]}
